Measurements published in article doi:10.1101/836676, “Crosslinking of nucleotide binding domains improves the coupling efficiency of an ABC transporter” (bioRxiv, 2019).

What was measured:
[1] = molecular target: the molecule itself; experiment: cross-linking; disulfide cross-linking of purified cysteine variants in detergent: 1 mM Cu(II)-(1,10-phenanthroline)3, 1 hour, 4 °C, 100 mM NaCl, 20 mM Tris pH 7.5, 0.05% DDM, 0.05% C12E8
[2] = molecular target: the molecule itself; experiment: crystal structure; NaS526C, NaT525C and NaE523Q with bound ATP; condition of NaA527C without MgCl2; samples with 1 mM ATP and 5 mM EDTA
[3] = molecular target: the molecule itself; experiment: crystal structure; wildtype NaAtm1 purified in DDM with MgAMPPNP; 50 mM ADA pH 7.1, 8-10% PEG 1000, 8-10% PEG 1500, 20 °C

Protein	binding result [1]	also measured
NaA527C, single-site cysteine variant of NaAtm1 (natural protein, Novosphingobium aromaticivorans, C527 in a disulfide with C527 of the second chain after oxidation, NaAtm1 of Novosphingobium aromaticivorans, GenBank ABD27067, with A527C; Made by site-directed mutagenesis of the C-terminally His6-tagged NaAtm1 construct; also called crosslinked NaA527C; source: Escherichia coli BL21-gold (DE3), purified (NiNTA, oxidation with Cu(II)-(1,10-phenanthroline)3, SEC)) MPPETATNPKDARHDGWQTLKRFLPYLWPADNAVLRRRVVGAILMVLLGKATTLALPFAYKKAVDAMTLGGGAQPALTVALAFVLAYALGRFSGVLFDNLRNIVFERVGQDATRHLAENVFARLHKLSLRFHLARRTGEVTKVIERGTKSIDTMLYFLLFNIAPTVIELTAVIVIFWLNFGLGLVTATILAVIAYVWTTRTITEWRTHLREKMNRLDGQALARAVDSLLNYETVKYFGAESREEARYASAARAYADAAVKSENSLGLLNIAQALIVNLLMAGAMAWTVYGWSQGKLTVGDLVFVNTYLTQLFRPLDMLGMVYRTIRQGLIDMAEMFRLIDTHIEVADVPNAPALVVNRPSVTFDNVVFGYDRDREILHGLSFEVAAGSRVAIVGPSGAGKSTIARLLFRFYDPWEGRILIDGQDIAHVTQTSLRAALGIVPQDSVLFNDTIGYNIAYGRDGASRAEVDAAAKGAAIADFIARLPQGYDTEVGERGLKLSGGEKQRVAIARTLVKNPPILLFDEATSCLDTRTEQDILSTMRAVASHRTTISIAHRLSTIADSDTILVLDQGRLAEQGSHLDLLRRDGLYAEMWARQAAESAEVSEAAE	binds	
NaE523Q, ATP-hydrolysis deficient variant of NaAtm1 with the E to Q mutation in the Walker B-motif (natural protein, Novosphingobium aromaticivorans, NaAtm1 of Novosphingobium aromaticivorans, GenBank ABD27067, with E523Q; Made by site-directed mutagenesis of the C-terminally His6-tagged NaAtm1 construct; source: Escherichia coli BL21-gold (DE3), purified (NiNTA, SEC)) MPPETATNPKDARHDGWQTLKRFLPYLWPADNAVLRRRVVGAILMVLLGKATTLALPFAYKKAVDAMTLGGGAQPALTVALAFVLAYALGRFSGVLFDNLRNIVFERVGQDATRHLAENVFARLHKLSLRFHLARRTGEVTKVIERGTKSIDTMLYFLLFNIAPTVIELTAVIVIFWLNFGLGLVTATILAVIAYVWTTRTITEWRTHLREKMNRLDGQALARAVDSLLNYETVKYFGAESREEARYASAARAYADAAVKSENSLGLLNIAQALIVNLLMAGAMAWTVYGWSQGKLTVGDLVFVNTYLTQLFRPLDMLGMVYRTIRQGLIDMAEMFRLIDTHIEVADVPNAPALVVNRPSVTFDNVVFGYDRDREILHGLSFEVAAGSRVAIVGPSGAGKSTIARLLFRFYDPWEGRILIDGQDIAHVTQTSLRAALGIVPQDSVLFNDTIGYNIAYGRDGASRAEVDAAAKGAAIADFIARLPQGYDTEVGERGLKLSGGEKQRVAIARTLVKNPPILLFDQATSALDTRTEQDILSTMRAVASHRTTISIAHRLSTIADSDTILVLDQGRLAEQGSHLDLLRRDGLYAEMWARQAAESAEVSEAAE		binding result [2]: binds
wildtype NaAtm1, bacterial Atm1 homolog from Novosphingobium aromaticivorans (natural protein, NaAtm1, ABC exporter (Atm1 homolog) of Novosphingobium aromaticivorans, GenBank ABD27067; natively cysteine-less; homodimer of 133 kDa; Selenomethionine protein (E. coli B834 (DE3)) was used for phasing; also called native transporter; source: Escherichia coli BL21-gold (DE3), purified (NiNTA, SEC) in DDM) MPPETATNPKDARHDGWQTLKRFLPYLWPADNAVLRRRVVGAILMVLLGKATTLALPFAYKKAVDAMTLGGGAQPALTVALAFVLAYALGRFSGVLFDNLRNIVFERVGQDATRHLAENVFARLHKLSLRFHLARRTGEVTKVIERGTKSIDTMLYFLLFNIAPTVIELTAVIVIFWLNFGLGLVTATILAVIAYVWTTRTITEWRTHLREKMNRLDGQALARAVDSLLNYETVKYFGAESREEARYASAARAYADAAVKSENSLGLLNIAQALIVNLLMAGAMAWTVYGWSQGKLTVGDLVFVNTYLTQLFRPLDMLGMVYRTIRQGLIDMAEMFRLIDTHIEVADVPNAPALVVNRPSVTFDNVVFGYDRDREILHGLSFEVAAGSRVAIVGPSGAGKSTIARLLFRFYDPWEGRILIDGQDIAHVTQTSLRAALGIVPQDSVLFNDTIGYNIAYGRDGASRAEVDAAAKGAAIADFIARLPQGYDTEVGERGLKLSGGEKQRVAIARTLVKNPPILLFDEATSALDTRTEQDILSTMRAVASHRTTISIAHRLSTIADSDTILVLDQGRLAEQGSHLDLLRRDGLYAEMWARQAAESAEVSEAAE		binding result [3]: binds
NaS526C, single-site cysteine variant of NaAtm1 (natural protein, Novosphingobium aromaticivorans, C526 in a disulfide with C526 of the second chain after oxidation, NaAtm1 of Novosphingobium aromaticivorans, GenBank ABD27067, with S526C; Made by site-directed mutagenesis of the C-terminally His6-tagged NaAtm1 construct; source: Escherichia coli BL21-gold (DE3), purified (NiNTA, oxidation with Cu(II)-(1,10-phenanthroline)3, SEC)) MPPETATNPKDARHDGWQTLKRFLPYLWPADNAVLRRRVVGAILMVLLGKATTLALPFAYKKAVDAMTLGGGAQPALTVALAFVLAYALGRFSGVLFDNLRNIVFERVGQDATRHLAENVFARLHKLSLRFHLARRTGEVTKVIERGTKSIDTMLYFLLFNIAPTVIELTAVIVIFWLNFGLGLVTATILAVIAYVWTTRTITEWRTHLREKMNRLDGQALARAVDSLLNYETVKYFGAESREEARYASAARAYADAAVKSENSLGLLNIAQALIVNLLMAGAMAWTVYGWSQGKLTVGDLVFVNTYLTQLFRPLDMLGMVYRTIRQGLIDMAEMFRLIDTHIEVADVPNAPALVVNRPSVTFDNVVFGYDRDREILHGLSFEVAAGSRVAIVGPSGAGKSTIARLLFRFYDPWEGRILIDGQDIAHVTQTSLRAALGIVPQDSVLFNDTIGYNIAYGRDGASRAEVDAAAKGAAIADFIARLPQGYDTEVGERGLKLSGGEKQRVAIARTLVKNPPILLFDEATCALDTRTEQDILSTMRAVASHRTTISIAHRLSTIADSDTILVLDQGRLAEQGSHLDLLRRDGLYAEMWARQAAESAEVSEAAE	binds	
NaT525C, single-site cysteine variant of NaAtm1 (natural protein, Novosphingobium aromaticivorans, NaAtm1 of Novosphingobium aromaticivorans, GenBank ABD27067, with T525C; In the cross-linking test C525 forms a disulfide with C525 of the second chain; source: Escherichia coli BL21-gold (DE3), purified (NiNTA, oxidation with Cu(II)-(1,10-phenanthroline)3, SEC)) MPPETATNPKDARHDGWQTLKRFLPYLWPADNAVLRRRVVGAILMVLLGKATTLALPFAYKKAVDAMTLGGGAQPALTVALAFVLAYALGRFSGVLFDNLRNIVFERVGQDATRHLAENVFARLHKLSLRFHLARRTGEVTKVIERGTKSIDTMLYFLLFNIAPTVIELTAVIVIFWLNFGLGLVTATILAVIAYVWTTRTITEWRTHLREKMNRLDGQALARAVDSLLNYETVKYFGAESREEARYASAARAYADAAVKSENSLGLLNIAQALIVNLLMAGAMAWTVYGWSQGKLTVGDLVFVNTYLTQLFRPLDMLGMVYRTIRQGLIDMAEMFRLIDTHIEVADVPNAPALVVNRPSVTFDNVVFGYDRDREILHGLSFEVAAGSRVAIVGPSGAGKSTIARLLFRFYDPWEGRILIDGQDIAHVTQTSLRAALGIVPQDSVLFNDTIGYNIAYGRDGASRAEVDAAAKGAAIADFIARLPQGYDTEVGERGLKLSGGEKQRVAIARTLVKNPPILLFDEACSALDTRTEQDILSTMRAVASHRTTISIAHRLSTIADSDTILVLDQGRLAEQGSHLDLLRRDGLYAEMWARQAAESAEVSEAAE	binds	
